Measured values taken from US20150023989A1, “NEW ANTIBODY DRUG CONJUGATES (ADCS) AND THE USE THEREOF” (SEATTLE GENETICS, INC., priority 2011, published 2015).

B1: Example 16 (immunoconjugate of GAL-FR21-mIgG1, coupled to lysine side chains) (antibody)
light: NIVMTQSPKSMSMSVGDRVSITCKASQGVSNDVAWYQKKPGQSPKLLIYSASYRYTGVPDRFTGSGSGTDFTFTISNVQAEDLAVYYCQQHSTTPYTFGGGTKLEIKRTDAAPTVSIFPPSSEQLTSGGASVVCFLNNFYPKDINVKWKIDGSERQNGVLNSWTDQDSKDSTYSMSSTLTLTKDEYERHNSYTCEATHKTSTSPIVKSFNRNEC
heavy: QVQLQQPGAEVVKPGASVKMSCKASGYIFTTYNVHWVKQTPGQGLEWIGSIYPDNGDTSYNQNFKGKATLTADKSSSTAYIQLSSLTSEDSAVYYCARGDFAYWGQGTLVTVSSAKTTPPSVYPLAPGSAAQTNSMVTLGCLVKGYFPEPVTVTWNSGSLSSGVHTFPAVLQSDLYTLSSSVTVPSSTWPSETVTCNVAHPASSTKVDKKIVPRDCGCKPCICTVPEVSSVFIFPPKPKDVLTITLTPKVTCVVVDISKDDPEVQFSWFVDDVEVHTAQTQPREEQFNSTFRSVSELPIMHQDWLNGKEFKCRVNSAAFPAPIEKTISKTKGRPKAPQVYTIPPPKEQMAKDKVSLTCMITDFFPEDITVEWQWNGQPAENYKNTQPIMDTDGSYFVYSKLNVQKSNWEAGNTFTCSVLHEGLHNHHTEKSLSHSPGK
modifications: here or on the partner: auristatin linker-toxophore on side chain NH of lysine residues, positions not stated (drug/mAb ratio 8.7 for the antibody)
B2: Example 17 (immunoconjugate of GAL-FR22-mIgG2a, coupled to lysine side chains) (antibody)
light: DIQMTQSPSSLSASLGGRVTITCKASQDIKNYIAWYQHKPGKSPRLLIHYTSTLQPGVPSRFSGSGSGRDYSFSISNLEPEDIATYYCLQYDDLYMFGGGTKLDIKRTDAAPTVSIFPPSSEQLTSGGASVVCFLNNFYPKDINVKWKIDGSERQNGVLNSWTDQDSKDSTYSMSSTLTLTKDEYERHNSYTCEATHKTSTSPIVKSFNRNEC
heavy: QVQLKQSGPGLVQPSQSLSITCTVSGFSLTSFGVHWVRQSPGKGLEWLGVIWSGGSTDYNADFRSRLSISKDNSKSQIFFKMNSLQPDDTAIYYCANFYYGYDDYVMDYWGQGTSVTVSSAKTTAPSVYPLAPVCGDTTGSSVTLGCLVKGYFPEPVTLTWNSGSLSSGVHTFPAVLQSDLYTLSSSVTVTSSTWPSQSITCNVAHPASSTKVDKKIEPRGPTIKPCPPCKCPAPNLLGGPSVFIFPPKIKDVLMISLSPIVTCVVVDVSEDDPDVQISWFVNNVEVHTAQTQTHREDYNSTLRVVSALPIQHQDWMSGKEFKCKVNNKDLPAPIERTISKPKGSVRAPQVYVLPPPEEEMTKKQVTLTCMVTDFMPEDIYVEWTNNGKTELNYKNTEPVLDSDGSYFMYSKLRVEKKNWVERNSYSCSVVHEGLHNHHTTKSFSRTPGK
modifications: here or on the partner: auristatin linker-toxophore on side chain NH of lysine residues, positions not stated (drug/mAb ratio 8.1 for the antibody)

Molecular target: FGFR2 on the cell surface of human tumour cell lines (human), P21802
Experiment: cell-based or functional assay

| Binder | MFM-223, IC50, 72 hr (growth inhibition) [nM] | SNU-16, IC50, 72 hr (growth inhibition) [nM] |
| --- | --- | --- |
| B1 | 0.0788 | < 0.03 |
| B2 | 0.278 | 0.0616 |
